Experimental data published in patent US11547739B2, “Peptides and methods related to ICOS signaling” (priority 2015, dated 2023).

How the values were obtained:
[1] = tested on: Tbk1 transcript; test: In vivo knockdown efficiency by quantitative PCR in sorted transduced cells; set-up: species or system mouse; settings: sorted shTbk1+CD4+ T cells
Protocol: Isolation of mRNA, cDNA synthesis and real-time PCR. Total RNA was extracted from sorted CD4^+ Ametrine- and CD4^+ Ametrine^+ cells using the RNeasy kit (Qiagen). RNA was used to synthesize cDNA by the SuperScript III FirstStrand cDNA synthesis kit (Life Technologies). […]; Relative gene expression levels were determined in triplicates, calculated using the 2-° Act method and normalized to the level of ACTB.

[2] = tested on: Tfh cells; settings: mouse, in vivo
[3] = tested on: GC B cells and plasma cells; type: in vivo, mouse; settings: KLH-gp61 in alum, 10 d
[4] = biological target: T1, TBK1 (Homo sapiens, UniProt Q9UHD2); test: ICOS immunoprecipitation and immunoblotting in transfected Jurkat (JTAg) T cells; type: binding; set-up: endogenous in cells; host or cells: Jurkat JTAg T cells transfected with ICOS plasmids; settings: Jurkat (JTAg) cells stimulated with anti-CD3 plus -ICOS mAbs
T1 sequence (Q9UHD2 1-729): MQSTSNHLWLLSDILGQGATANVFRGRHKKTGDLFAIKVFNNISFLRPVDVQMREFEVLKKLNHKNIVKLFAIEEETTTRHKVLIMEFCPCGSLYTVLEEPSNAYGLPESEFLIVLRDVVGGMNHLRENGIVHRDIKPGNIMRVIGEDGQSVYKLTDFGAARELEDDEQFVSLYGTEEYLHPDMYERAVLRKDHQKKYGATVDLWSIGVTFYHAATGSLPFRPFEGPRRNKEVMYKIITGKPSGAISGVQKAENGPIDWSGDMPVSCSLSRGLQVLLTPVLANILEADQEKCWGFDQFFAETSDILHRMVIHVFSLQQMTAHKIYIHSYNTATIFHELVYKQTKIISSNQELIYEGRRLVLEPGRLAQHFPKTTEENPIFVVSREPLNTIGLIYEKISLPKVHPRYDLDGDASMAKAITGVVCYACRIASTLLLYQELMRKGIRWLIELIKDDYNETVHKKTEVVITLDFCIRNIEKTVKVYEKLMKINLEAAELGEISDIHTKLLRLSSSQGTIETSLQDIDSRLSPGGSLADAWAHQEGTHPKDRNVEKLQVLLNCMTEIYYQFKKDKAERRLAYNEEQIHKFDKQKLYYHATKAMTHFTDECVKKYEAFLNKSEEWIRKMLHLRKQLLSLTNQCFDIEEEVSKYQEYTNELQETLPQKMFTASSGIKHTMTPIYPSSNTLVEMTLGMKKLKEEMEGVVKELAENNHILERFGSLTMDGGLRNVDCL
Protocol: (§1) Immunoprecipitation and immunoblotting. The human leukemic Jurkat T cell line, JTAg, was previously described (Li, J et al. J Immunol 2013, 191(1): 200-207; Rolf J et al., J Immunol 2010, 185(7): 4042-4052) and the HEK 293T cell line was obtained from ATCC. These cell lines have not been recently STR profiled but tested negative for mycoplasma contamination. JTAg cells in logarithmic growth phase were transfected with plasmid DNAs by electroporation and incubated for 24 hours. Transfection of HEK293T cells was carried out via liposomes-mediated transfection with plasmid DNAs. For experiments using primary mouse T cells, purified CD4+ T cells were activated in vitro with anti-mouse CD3 (clone 145-2C11) and CD28 (clone 37.51) for 48 hours prior to resting in the presence of IL-2 for another 48 hours. Transfected JTAg cells and preactivated mouse CD4^+ T cells were stimulated with anti-CD3 and anti-ICOS (clone C398.4A) monoclonal antibodies (mAbs) in the presence of a cross-linking antibody (Ab) for 2 minutes. […] The intensity of bands was measured using the ImageJ software (NIH). To determine the ratio of TBK1 to p85a, the band intensity on IP blots and WCL blots were measured for TBK1 and p85a, respectively, and the ratio was expressed as (IP TBK1)/(WCL TBK1): (IP p85a)/(WCL p85a).

[5] = biological target: T1, TBK1; test: Anti-FLAG immunoprecipitation of WT or mutated TRAF2/TRAF3 in HEK293T cells; type: binding; set-up: endogenous in cells; settings: FLAG-tagged TRAF in HEK293T cells
Protocol: as §1

## shTbk1 (guide AAGACATAAAGTGCTTATTATG; expressed or natural sequence)
[1]
  Tbk1 transcript reduced: ~80%

B1: WT ICOS (protein)
chain: EINGSANYEMFIFHNGGVQILCKYPDIVQQFKMQLLKGGQILCDLTKTKGSGNTVSIKSLKFCHSQLSNNSVSFFLYNLDHSHANYYFCNLSIFDPPPFKVTLTGGYLHIYESQLCCQLKFWLPIGCAAFVVVCILGCILICWLTKKKYSSSVHDPNGEYMFMRAVNTAKKSRLTDVTL
[2]
  CXCR5+SLAMlo Tfh cell population: differentiated
  differentiation of CXCR5+PD1hi GC Tfh cells: restored
  nascent CXCR5+Bcl6+ Tfh cells: able to differentiate
[3]
  B cell differentiation (Fas+GL7+ GC B cells and class-switched IgD-CD138+ plasma cells): supported the differentiation
[4]
  interaction with endogenous TBK1 in ICOS IPs: interacted strongly

B2: WT TRAF2 (protein)
chain: MAAASVTPPGSLELLQPGFSKTLLGTKLEAKYLCSACRNVLRRPFQAQCGHRYCSFCLASILSSGPQNCAACVHEGIYEEGISILESSSAFPDNAARREVESLPAVCPSDGCTWKGTLKEYESCHEGRCPLMLTECPACKGLVRLGEKERHLEHECPERSLSCRHCRAPCCGADVKAHHEVCPKFPLTCDGCGKKKIPREKFQDHVKTCGKCRVPCRFHAIGCLETVEGEKQQEHEVQWLREHLAMLLSSVLEAKPLLGDQSHAGSELLQGCESLEKKTATFENIVCVLNREVERVAMTAEACSRQHRLDQDKIEAPSSKVQQLERSIGLKDLAMADLEQKVSEMEASTYDGVFIWKISDFARKRQEAVAGRIPAIFSPAFYTRRYGYKMCLRIYLNGDGTGRGTHLSLFFVVMKGPNDALLRWPFNQKVTLMLLDQNNREHVIDAFRPDVTSSSFQRPVNDMNIASGCPLFCPVSKMEAKDSYVRDDAIFIKAIVDLTGL
modifications: left off: small tags and cut ends
[5]
  interaction with TBK1: interacted strongly

B3: TRAF3 (protein, UniProt Q13114 1-568, looked up)
TNF receptor-associated …: MESSKKMDSPGALQTNPPLKLHTDRSAGTPVFVPEQGGYKEKFVKTVEDKYKCEKCHLVLCSPKQTECGHRFCESCMAALLSSSSPKCTACQESIVKDKVFKDNCCKREILALQIYCRNESRGCAEQLMLGHLLVHLKNDCHFEELPCVRPDCKEKVLRKDLRDHVEKACKYREATCSHCKSQVPMIALQKHEDTDCPCVVVSCPHKCSVQTLLRSELSAHLSECVNAPSTCSFKRYGCVFQGTNQQIKAHEASSAVQHVNLLKEWSNSLEKKVSLLQNESVEKNKSIQSLHNQICSFEIEIERQKEMLRNNESKILHLQRVIDSQAEKLKELDKEIRPFRQNWEEADSMKSSVESLQNRVTELESVDKSAGQVARNTGLLESQLSRHDQMLSVHDIRLADMDLRFQVLETASYNGVLIWKIRDYKRRKQEAVMGKTLSLYSQPFYTGYFGYKMCARVYLNGDGMGKGTHLSLFFVIMRGEYDALLPWPFKQKVTLMLMDQGSSRRHLGDAFKPDPNSSSFKKPTGEMNIASGCPVFVAQTVLENGTYIKDDTIFIKVIVDTSDLPDP
[5]
  interaction with TBK1: interacted strongly
